Assay results as given in patent US20220252601A1 (JW BIOSCIENCE, published 2022).

T1: CRS (cysteinyl-tRNA synthetase) (UniProt P49589 1-748, limits assumed)
T1 sequence (looked up): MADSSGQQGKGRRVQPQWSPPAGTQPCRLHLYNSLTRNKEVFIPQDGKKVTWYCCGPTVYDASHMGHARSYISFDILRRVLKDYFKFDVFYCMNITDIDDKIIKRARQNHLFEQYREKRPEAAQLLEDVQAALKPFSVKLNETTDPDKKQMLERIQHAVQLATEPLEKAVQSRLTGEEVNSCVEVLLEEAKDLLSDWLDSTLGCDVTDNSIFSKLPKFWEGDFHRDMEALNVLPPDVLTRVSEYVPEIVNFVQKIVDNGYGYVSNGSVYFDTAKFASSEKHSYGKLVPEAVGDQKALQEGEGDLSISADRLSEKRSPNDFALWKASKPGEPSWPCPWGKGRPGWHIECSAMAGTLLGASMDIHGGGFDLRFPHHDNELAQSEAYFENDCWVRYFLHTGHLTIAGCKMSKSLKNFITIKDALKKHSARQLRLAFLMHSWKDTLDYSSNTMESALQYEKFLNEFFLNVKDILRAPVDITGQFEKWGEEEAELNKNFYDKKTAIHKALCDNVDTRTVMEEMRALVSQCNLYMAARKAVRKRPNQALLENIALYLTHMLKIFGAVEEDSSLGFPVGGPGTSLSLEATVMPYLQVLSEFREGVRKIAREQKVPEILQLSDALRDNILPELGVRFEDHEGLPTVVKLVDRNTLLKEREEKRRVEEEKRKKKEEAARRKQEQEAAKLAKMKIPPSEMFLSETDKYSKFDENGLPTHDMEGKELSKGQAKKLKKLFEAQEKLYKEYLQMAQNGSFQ

T2: AIMP1 (aminoacyl tRNA synthase complex-interacting multifunctional protein 1) (UniProt Q12904 1-312, limits assumed)
T2 construct: also called p43
T2 sequence (looked up): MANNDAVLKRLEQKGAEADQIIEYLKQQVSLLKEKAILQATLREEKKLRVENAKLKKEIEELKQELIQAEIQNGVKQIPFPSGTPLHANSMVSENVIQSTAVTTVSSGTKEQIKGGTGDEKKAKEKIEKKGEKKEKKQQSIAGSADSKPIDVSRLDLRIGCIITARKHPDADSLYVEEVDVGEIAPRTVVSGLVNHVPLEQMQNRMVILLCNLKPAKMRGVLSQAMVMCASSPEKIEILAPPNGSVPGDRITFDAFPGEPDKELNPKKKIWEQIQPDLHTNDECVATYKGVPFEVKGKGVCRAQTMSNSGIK

T3: GRS (glycyl tRNA synthetase) (UniProt P41250 55-739, limits assumed)
T3 sequence (looked up): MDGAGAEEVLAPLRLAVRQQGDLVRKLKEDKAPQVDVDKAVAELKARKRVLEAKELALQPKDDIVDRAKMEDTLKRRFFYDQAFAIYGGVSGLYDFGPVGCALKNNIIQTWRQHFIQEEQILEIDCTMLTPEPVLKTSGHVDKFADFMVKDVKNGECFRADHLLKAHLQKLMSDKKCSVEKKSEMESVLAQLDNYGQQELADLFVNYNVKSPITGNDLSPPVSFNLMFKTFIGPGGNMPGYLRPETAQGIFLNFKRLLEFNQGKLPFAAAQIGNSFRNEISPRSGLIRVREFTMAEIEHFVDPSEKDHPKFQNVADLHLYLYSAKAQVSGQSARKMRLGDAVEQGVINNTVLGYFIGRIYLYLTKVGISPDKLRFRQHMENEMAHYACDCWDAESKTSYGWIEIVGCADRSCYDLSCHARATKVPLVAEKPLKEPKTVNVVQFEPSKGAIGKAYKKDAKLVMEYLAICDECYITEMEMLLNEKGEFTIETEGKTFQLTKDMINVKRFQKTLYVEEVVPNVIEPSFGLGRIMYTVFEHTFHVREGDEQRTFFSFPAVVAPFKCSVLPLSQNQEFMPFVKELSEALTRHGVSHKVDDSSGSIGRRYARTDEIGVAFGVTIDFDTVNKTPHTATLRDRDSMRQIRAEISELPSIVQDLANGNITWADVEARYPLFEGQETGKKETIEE


Assays:
Experiment in all cases: indirect ELISA, antigen coated at 1 µg/ml
[1] = molecular target: T1, CRS (cysteinyl-tRNA synthetase)
[2] = molecular target: T2, AIMP1 (aminoacyl tRNA synthase …)
[3] = molecular target: T3, GRS (glycyl tRNA synthetase)
[4] = molecular target: KRS (lysyl tRNA synthetase) (UniProt Q15046 1-597, limits assumed)
KRS (lysyl tRNA synthetase), sequence (Q15046 whole entry): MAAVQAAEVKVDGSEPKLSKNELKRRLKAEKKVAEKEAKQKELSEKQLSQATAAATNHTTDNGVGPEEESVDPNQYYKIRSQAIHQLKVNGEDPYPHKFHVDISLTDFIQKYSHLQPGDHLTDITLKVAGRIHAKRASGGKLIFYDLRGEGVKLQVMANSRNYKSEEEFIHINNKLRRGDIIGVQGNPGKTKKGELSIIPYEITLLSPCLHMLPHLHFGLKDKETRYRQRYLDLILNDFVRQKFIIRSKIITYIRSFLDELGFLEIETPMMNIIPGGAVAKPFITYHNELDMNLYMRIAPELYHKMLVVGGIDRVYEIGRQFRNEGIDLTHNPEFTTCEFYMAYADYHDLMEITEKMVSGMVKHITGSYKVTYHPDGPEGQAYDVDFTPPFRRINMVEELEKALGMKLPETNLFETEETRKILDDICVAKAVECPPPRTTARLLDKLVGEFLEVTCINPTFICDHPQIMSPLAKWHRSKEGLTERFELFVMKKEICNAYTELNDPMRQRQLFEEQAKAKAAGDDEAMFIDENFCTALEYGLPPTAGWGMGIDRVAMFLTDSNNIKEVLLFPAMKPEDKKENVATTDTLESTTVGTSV

Binder | binding result [1] | binding result [2] | binding result [3] | binding result [4]
1D4C3 (antibody, V domains shown, Antibody was biotin-attached in the ELISA of Example 5; site not stated., detected with anti-mouse HRP; also called 1D4C4) VH: QAYLQQSGAELVRPGASVKMSCKASGYTFTSYNMHWVKQTPRQGLEWIGAIYPGNGDSSYNQKFKGKATLTVGKSSSTAYMQLSSLTSEDSAVYFCARWHYGSTYYAMDYWGQGTSVTVSS VL: DIQMTQTTSSLSASLGDRVTISCRASQDISNYLNWFQQKPDGTVKLLIYYTSRLHSGVPSRFSGSGSGTDYSLTISNLEQEDFATYFCQQGKTLPHTFGGGTKLEIK | no binding (tested: 500 ng/ml) | no binding (tested: 500 ng/ml) | no binding (tested: 500 ng/ml) | no binding (tested: 500 ng/ml)
3B6 (antibody, V domains shown, Antibody was biotin-attached in the ELISA of Example 5; site not stated.) VH: EVQLLESGGGLVQPGGSLRLSCAASGFTFSSYSMSWVRQAPGKGLEWVSAISYDNGNTYYADSVKGRFTISRDNSKNTLYLQMNSLRAEDTAVYYCAKGATTQPHTSFDYWGQGTLVTVNS VL: QSVLTQPPSASGTPGQRVTISCSGSSSNIGNNNVSWYQQLPGTAPKLLIYYNSHRPSGVPDRFSGSKSGTSASLAISGLRSEDEADYYCGTWDASLSAYVFGGGTKLTVL | no binding (tested: 500 ng/ml) | no binding (tested: 500 ng/ml) | no binding (tested: 500 ng/ml) | no binding (tested: 500 ng/ml)

The next lines start with the values.

binding result [1] | binding result [2] | binding result [3] | binding result [4] | Binder
no binding (tested: 500 ng/ml) | no binding (tested: 500 ng/ml) | no binding (tested: 500 ng/ml) | no binding (tested: 500 ng/ml) | 3B10H5 (antibody, V domains shown, Antibody was biotin-attached in the ELISA of Example 5; site not stated., detected with anti-mouse HRP) VH: QAYLQQSGAELVRPGASVKMSCKASGYTFTSYNLHWVKQTPRQGLKWIGAIYPGNGDTSYNQKFKGKATLTVDKSSSTAYMQLSSLTSEDSAVYFCARWHYGSSYYAMDYWGQGTSVTVSS VL: DIQMTQTTSSLSASLGDRVTISCRASQDISNYLNWYQQKPDGTVKLLISYTSRLHSGVPSRFSGSGSGTDYSLTISNLEQEDIATYFCQQGYTLPHTFGGGTKLEIK
no binding (tested: 500 ng/ml) | no binding (tested: 500 ng/ml) | no binding (tested: 500 ng/ml) | no binding (tested: 500 ng/ml) | 4G4 (antibody, V domains shown, Antibody was biotin-attached in the ELISA of Example 5; site not stated.) VH: EVQLLESGGGLVQPGGSLRLSCAASGLTFSNYAMSWVRQAPGKGLEWVSWISPGDGNKYYADSVRGRFTVSRDNSKNTLYLQMNSLRAEDTAVYYCARVTIPCRRTTCYSANGMDVWGQGTLVTVSS VL: QSVLTQPPSASGTPGQRVTISCSGSSSNIGSNSVTWYQQLPGTAPKLLIYHDSHPPSGVPDRFSGSKSGTSASLAISGLRSEDEADYYCAAWDDSLSGYVFGGGTKLTVL
no binding (tested: 500 ng/ml) | no binding (tested: 500 ng/ml) | no binding (tested: 500 ng/ml) | no binding (tested: 500 ng/ml) | 4H9 (antibody, V domains shown, Antibody was biotin-attached in the ELISA of Example 5; site not stated.) VH: EVQLLESGGGLVQPGGPLRLSCAASGFTFSNYAMSWVRQAPGKGLEWVSSIYPDGGGIYYADSVKGRFTISRDNSKNTLYLQMNSLRAEDTAVYYCARDLYPFGPDTFDYWGQGTLVTVSS VL: QSVLTQPPSASGTPGQRVTISCSGSSSNIGSNDVTWYQQLPGTAPKLLIYDNSKRPSGVPDRFSGSKSGTSASLAISGLRSEDEADYYCGAWDDSLSGYVFGGGTKLTVL
